The assay in a line: OTA detoxification activity assay (specific activity, fluorescence reduction ex/em 390/450 nm). The assay is classed as biochemical. Particulars: SEQ ID NO: 1 = 100%. On the procedure: To determine the specific activity of recombinant target polypeptides produced e.g. as described in Example 2 above in units per liter (U/L), ochratoxin A (OTA) detoxification activity assays were performed. One unit is defined as the amount of enzyme necessary for degradation of 1 μmol or OTA in 1 min when using a starting OTA concentration of […].
OTA detoxification activity assays were set up in a final volume of the reaction mixture of […], containing the recombinant enzyme preparation (preferably diluted to yield a volumetric activity of 1-10 mU/L), and 200 ng/mL OTA in 100 mM sodium phosphate buffer.
Specific activities were determined at pH 6.0 and pH 7.5. As soon as all components of the reaction mixture were mixed, OTA degradation was followed at 37° C. on a fluorescence spectrophotometer (BioTek Synergy H1 MFD Multimode microplate reader) by following the reduction in fluorescence at ex/em 390 nm/450 nm. For work performed at pH 6.0 and 7.5, a 100 mM sodium phosphate buffer was used.
For calculation of the specific activity, the initial linear part of the recorded fluorescence reduction curve was used. In addition to the fluorescence-based method described above, OTA degradation was also determined by using the HPLC-MS method as described by Dellafiora et al. 2020, Toxins 12, 258, essentially confirming the fluorescence-based results. Genes encoding either of the indicated SEQ ID NOs are expressed as described herein and the specific activities for the obtained polypeptide preparation are exemplarily shown in Table 8. Analogously, enzymatic activities using either ochratoxin B, C or TA as substrate or can be found.

B1: 191 (protein)
chain: MTTRTRILTAFLSLLAANACAADAAPAAPHTVVLRAARMFDGASGKLVDHPQLTIVGNKIVRIAQGDKAEVPAGAEVVDLGDATLLPGFIDAHVHLSGQSSDNWYGDFFDNMMRFPAEQALYGAYYARITLEAGFTSVRDVGSTDWVALGLRNAIDAGKVPGPRMLVSNYAVGSTGGHADQDPIPPHKLPLAGPLQGVCNGPEECRAAVRYQIKYGANVIKFMPSGGVLSLSDPVDAPELSQDEMNAVIGESHAWGRKVAAHAHGDKAAKMAVAAGVDSIEHGSFIEDDTLRAMKAKNVYLVPTISAIAHVEEKIGTFPPVIAEKGRAAAAHLRQTFRHAVQIGVPIALGTDATVGAHGSNAREFRYMVENGLTPAQALLAGTANAARLLGTFDRVGTLEAGKLADVVAVPGNPIADITVTERPLFVMKDGVVVRRDAVR
modifications: exemplary polypeptide
For B1, the “Specific OTA detoxification activities in % compared to the enzyme of SEQ ID NO: 1, pH 6.0” value was determined as 21% and the “Specific OTA detoxification activities in % compared to the enzyme of SEQ ID NO: 1, pH 7.5” value came to 28%.

B2: 205 (protein)
chain: MTTRTRILTAFLSLLAANACAADAAPAAPHTVVLRAARMFDGASGKLVDHPQLTIVGNKIVRIAQGDKAEVPAGAEVVDLGDATLLPGFIDAHVHLSGQSSDNWYGDFFDNMMRFPAEQALYGAYYARITLEAGFTSVRDVGSTDWVALGLRNAIDAGKVPGPRMLVSNYAVGSTGGHADQDPIPPHKLPLAGPLQGVCNGPEECRAAVRYQIKYGANVIKFMPSGGVLSLSDPVDAPELSQDEMNAVIGESHAWGRKVAAHAHGDKAAKMAVAAGVDSIEHGSFIEDDTLRAMKAKNVYLVPTISAIAHVEEKIGTFPPVSAEKGRAAAAHLRQTFRHAVQIGVPIALGTDAGVGAHGSNAREFRYMVENGLTPAQALLAGTANAARLLGTFDRVGTLEAGKLADVVAVPGNPIADITVTERPLFVMKDGVVVRRDAVR
modifications: exemplary polypeptide
Consider B2, for which the “Specific OTA detoxification activities in % compared to the enzyme of SEQ ID NO: 1, pH 6.0” value was found to be 52% and the “Specific OTA detoxification activities in % compared to the enzyme of SEQ ID NO: 1, pH 7.5” value amounted to 24%.

B3: 222 (protein)
chain: MTTRTRILTAFLSLLAANACAADAAPAAPHTVVLRAARMFDGASGKLVDHPQLTIVGNKIVRIAQGDKAEVPAGAEVVDLGDATLLPGFIDAHVHLSGQSSDNWYGDFFDNMMRFPAEQALYGAYYARITLEAGFTSVRDVGSTDWVALGLRNAIDAGKVPGPRMLVSNYAVGSTGGHADQDPIPPHDLPLAGPLQGVCNGPEECRAAVRYQIKYGANVIKFMPSGGVLSLSDPVDAPELSQDEMNAVIGESHAWGRKVAAHAHGDKAAKMAVAAGVDSIEHGSFIEDDTLRAMKAKNVYLVPTISAIAHVEEKIGTFPPVIAEKGRAAAAHLRQTFRHAVQIGVPIALGTDAGVGAHGSNAREFRYMVENGLTPAQALLAGTANAARLLGTFDRVGTLEAGKLADVVAVPGNPIADITVTERPLFVMKDGVVVRRDAVR
modifications: exemplary polypeptide
B3: the “Specific OTA detoxification activities in % compared to the enzyme of SEQ ID NO: 1, pH 6.0” value was 8% and the “Specific OTA detoxification activities in % compared to the enzyme of SEQ ID NO: 1, pH 7.5” value was 20%.

B4: 204 (protein)
chain: MTTRTRILTAFLSLLAANACAADAAPAAPHTVVLRAARMFDGASGKLVDHPQLTIVGNKIVRIAQGDKAEVPAGAEVVDLGDATLLPGFIDAHVHLSGQSSDNWYGDFFDNMMRFPAEQALYGAYYARITLEAGFTSVRDVGSTDWVALGLRNAIDAGKVPGPRMLVSNYAVGSTGGHADQDPIPPHKLPLAGPLQGVCNGPEECRAAVRYQIKYGANVIKFMPSGGVLSLSDPVDAPELSQDEMNAVIGESHAWGRKVAAHAHGDKAAKMAVAAGVDSIEHGSFIEDDTLRAMKAKNVYLVPTISAIAHVEEKIGTFPPVQAEKGRAAAAHLRQTFRHAVQIGVPIALGTDAGVGAHGSNAREFRYMVENGLTPAQALLAGTANAARLLGTFDRVGTLEAGKLADVVAVPGNPIADITVTERPLFVMKDGVVVRRDAVR
modifications: exemplary polypeptide
Consider B4, for which the “Specific OTA detoxification activities in % compared to the enzyme of SEQ ID NO: 1, pH 6.0” value is on record as 41% and the “Specific OTA detoxification activities in % compared to the enzyme of SEQ ID NO: 1, pH 7.5” value is 24%.

B5: 215 (protein)
chain: MTTRTRILTAFLSLLAANACAADAAPAAPHTVVLRAARMFDGASGKLVDHPQLTIVGNKIVRIAQGDKAEVPAGAEVVDLGDATLLPGFIDAHVHLSGQSSDLWYGDFFDNMMRFPAEQALYGAYYARITLEAGFTSVRDVGSTDWVALGLRNAIDAGKVPGPRMLVSNYAVGSTGGHADQDPIPPHKLPLAGPLQGVCNGPEECRAAVRYQIKYGANVIKFMPSGGVLSLSDPVDAPELSQDEMNAVIGESHAWGRKVAAHAHGDKAAKMAVAAGVDSIEHGSFIEDDTLRAMKAKNVYLVPTISAIAHVEEKIGTFPPVIAEKGRAAAAHLRQTFRHAVQIGVPIALGTDAGVGAHGSNAREFRYMVENGLTPAQALLAGTANAARLLGTFDRVGTLEAGKLADVVAVPGNPIADITVTERPLFVMKDGVVVRRDAVR
modifications: exemplary polypeptide
For B5, the “Specific OTA detoxification activities in % compared to the enzyme of SEQ ID NO: 1, pH 6.0” value was determined as 27% and the “Specific OTA detoxification activities in % compared to the enzyme of SEQ ID NO: 1, pH 7.5” value was found to be 20%.

B6: 212 (protein)
chain: MTTRTRILTAFLSLLAANACAADAAPAAPHTVVLRAARMFDGASGKLVDPPQLTIVGNKIVRIAQGDKAEVPAGAEVVDLGDATLLPGFIDAHVHLSGQSSDNWYGDFFDNMMRFPAEQALYGAYYARITLEAGFTSVRDVGSTDWVALGLRNAIDAGKVPGPRMLVSNYAVGSTGGHADQDPIPPHKLPLAGPLQGVCNGPEECRAAVRYQIKYGANVIKFMPSGGVLSLSDPVDAPELSQDEMNAVIGESHAWGRKVAAHAHGDKAAKMAVAAGVDSIEHGSFIEDDTLRAMKAKNVYLVPTISAIAHVEEKIGTFPPVIAEKGRAAAAHLRQTFRHAVQIGVPIALGTDAGVGAHGSNAREFRYMVENGLTPAQALLAGTANAARLLGTFDRVGTLEAGKLADVVAVPGNPIADITVTERPLFVMKDGVVVRRDAVR
modifications: exemplary polypeptide
For the molecule B6, the “Specific OTA detoxification activities in % compared to the enzyme of SEQ ID NO: 1, pH 6.0” value came to 46% and the “Specific OTA detoxification activities in % compared to the enzyme of SEQ ID NO: 1, pH 7.5” value came to 17%.

B7: 226 (protein)
chain: MTTRTRILTAFLSLLAANACAADAAPAAPHTVVLRAARMFDGASGKLVDHPQLTIVGNKIVRIAQGDKAEVPAGAEVVDLGDATLLPGFIDAHVHLSGQSSDNWYGDFFDNMMRFPAEQALYGAYYARITLEAGFTSVRDVGSTDWVALGLRNAIDAGKVPGPRMLVSNYAVGSTGGHADQDPIPPHKLPLAGPLQGVCNGPEECRAAVRYQIKYGANVIKFMPSPGVLSLSDPVDAPELSQDEMNAVIGESHAWGRKVAAHAHGDKAAKMAVAAGVDSIEHGSFIEDDTLRAMKAKNVYLVPTISAIAHVEEKIGTFPPVIAEKGRAAAAHLRQTFRHAVQIGVPIALGTDAGVGAHGSNAREFRYMVENGLTPAQALLAGTANAARLLGTFDRVGTLEAGKLADVVAVPGNPIADITVTERPLFVMKDGVVVRRDAVR
modifications: exemplary polypeptide
As for B7, the “Specific OTA detoxification activities in % compared to the enzyme of SEQ ID NO: 1, pH 6.0” value was found to be 19% and the “Specific OTA detoxification activities in % compared to the enzyme of SEQ ID NO: 1, pH 7.5” value was 22%.

B8: 223 (protein)
chain: MTTRTRILTAFLSLLAANACAADAAPAAPHTVVLRAARMFDGASGKLVDHPQLTIVGNKIVRIAQGDKAEVPAGAEVVDLGDATLLPGFIDAHVHLSGQSSDNWYGDFFDNMMRFPAEQALYGAYYARITLEAGFTSVRDVGSTDWVALGLRNAIDAGKVPGPRMLVSNYAVGSTGGHADQDPIPPHELPLAGPLQGVCNGPEECRAAVRYQIKYGANVIKFMPSGGVLSLSDPVDAPELSQDEMNAVIGESHAWGRKVAAHAHGDKAAKMAVAAGVDSIEHGSFIEDDTLRAMKAKNVYLVPTISAIAHVEEKIGTFPPVIAEKGRAAAAHLRQTFRHAVQIGVPIALGTDAGVGAHGSNAREFRYMVENGLTPAQALLAGTANAARLLGTFDRVGTLEAGKLADVVAVPGNPIADITVTERPLFVMKDGVVVRRDAVR
modifications: exemplary polypeptide
Regarding B8, the “Specific OTA detoxification activities in % compared to the enzyme of SEQ ID NO: 1, pH 6.0” value stood at 14% and the “Specific OTA detoxification activities in % compared to the enzyme of SEQ ID NO: 1, pH 7.5” value was determined as 16%.

B9: 199 (protein)
chain: MTTRTRILTAFLSLLAANACAADAAPAAPHTVVLRAARMFDGASGKLVDHPQLTIVGNKIVRIAQGDKAEVPAGAEVVDLGDATLLPGFIDAHVHLSGQSSDNLYGDFFDNMMRFPAEQALYGAYYARITLEAGFTSVRDVGSTDWVALGLRNAIDAGKVPGPRMLVSNYAVGSTGGHADQDPIPPHKLPLAGPLQGVCNGPEECRAAVRYQIKYGANVIKFMPSGGVLSLSDPVDAPELSQDEMNAVIGESHAWGRKVAAHAHGDKAAKMAVAAGVDSIEHGSFIEDDTLRAMKAKNVYLVPTISAIAHVEEKIGTFPPVIAEKGRAAAAHLRQTFRHAVQIGVPIALGTDAGVGAHGSNAREFRYMVENGLTPAQALLAGTANAARLLGTFDRVGTLEAGKLADVVAVPGNPIADITVTERPLFVMKDGVVVRRDAVR
modifications: exemplary polypeptide
In the case of B9, the “Specific OTA detoxification activities in % compared to the enzyme of SEQ ID NO: 1, pH 6.0” value is listed as 9% and the “Specific OTA detoxification activities in % compared to the enzyme of SEQ ID NO: 1, pH 7.5” value was 34%.

(Values after patent US20240352438A1, “MEANS AND METHODS FOR DETOXIFYING OCHRATOXIN A” (DSM Austria GmbH, priority 2021, published 2024).)
